From patent US20260258115A1 (MAPP BIOPHARMACEUTICAL, published 2026)
Residue numbers refer to the chain shown, from its start.

B1: ADI-20973 (antibody, V domains shown)
VH: EVQLLESGGGLVKPAGSLRLSCAASGFSFSSYYMNWIRQAPGKGLEWVSDISGGSSYTNYADSVKGRFTVSRDNAKNSVYLQMNSLRGEDTAVYYCARGASTAATYTPTFDYWGQGILVTVSS
VL: QPVLTQPPSVSGAPGQRVTISCTGSSSNIGAGYDVHWYQQLPGTAPKLLMFGNNNRPSGVPDRFSGSKSGTSASLAITGLRPEDEADYYCQSYDRRLTVVFGGGTKLTVL
B2: ADI-20974 (antibody, V domains shown)
VH: EVQLVESGGGLVKPGGSLRLSCAASGFSFSSYQINWVRQAPGKGLEWVSSISGGSSYTDYADSIKGRFTISRDNAKKSAFLQMKSLRADDTAVYYCARALMATAGGLAFDIWGQGTMVTVSS
VL: B1 VL with S26G, L41V, M50I, F51L, G52R, N54T, R81Q, P82A, R96S, T98S
B3: ADI-20982 (antibody, V domains shown)
VH: EVQLVESGPGLVKPSQTLSLTCSVSGVSISRGSYYWSWIRQPAGGGLEWIGRIYTSGVTRYNPSLESRVTISLDSSQNQFFLRLSSVTAADTAVYYCATRESASYSSGPDAFDIWGQGTTVTVSS
VL: DIQMTQSPSTLSASVGDRVIITCRASQSVNSWLAWYQQKPGKAPKLLIYQASSLESGVPSRFSGSGSGTEFTLTINSLQPDDFATYYCQQYKTFSRPFGQGTKVEIK
B4: ADI-14577 (antibody, V domains shown)
VH: QVQLVQSGAEVKKPGASVKVSCKASGYTFTNYGITWVRQAPGQGLEWMGWISAYNGVRNYAQKLQGRVTMTIDTSRTTAYMELKNLRSDDTAMYYCARGPPVIAADDFQHWGQGTMVTVSS
VL: DIQMTQSPLSLPVTLGQPASISCRSSQSLVHSNGDTYLNWFQQRPGRSPRRLIYKVSNRDSGVPDRFSGSGSGTDFTLKISRVEAEDVGVYYCMQGTHWPPDFGQGTRLEIK
B5: ADI-14597 (antibody, V domains shown)
VH: EVQLVESGGVVVQPGGSLRLSCAVSGFNFDDYSMHWVRQLPGKGLEWVSLISWDGGITYYADSVKGRFTISRDNSKNSLYLQMNSLRTEDTALYYCAKDGNRYSDNDYYFDYWGQGTLVTVSS
VL: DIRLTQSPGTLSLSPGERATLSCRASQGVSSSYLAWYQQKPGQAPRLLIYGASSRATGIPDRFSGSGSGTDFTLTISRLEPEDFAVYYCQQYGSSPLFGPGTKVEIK
B6: ADI-20964 (antibody, V domains shown)
VH: QVQLVQSGAEVKKPGASVKVSCKASGYTFTHYGISWVRQAPGQGLEWMGWISAYNGNTNYAQKLQGRVTMTTDTSTSTAYMEVRSLRYDDTAVYYCARDVPVEAATSPEFWGQGTLVTVSS
VL: DIVMTQTPLSLPVTLGQPASISCRSSQSLVYSDGNTYLSWFQQRPGQSPRRLIYKVSNRDSGVPNRFSGSGSGTDFTLKISRVEAEDVGVYYCVQNTHWPAYTFGQGTKVEIK
B7: ADI-20970 (antibody, V domains shown)
VH: EVQLLESGGGLVKPGGSLRLSCAVSGFSFSNAWMSWVRQAPGKGLEWVGRIRSKTDGGTTDYAAPVKGRFTISRDDSKNTLYLQMNSLKTEDTAVYYCTTAPRYSTSWYPGYYYYYYMDVWGKGTTVTVSS
VL: DIQMTQSPSSLSASVGDRVTITCQASQDINFYLNWYQQKPGKAPKLLIYDASNLETGVPSRFSGSVSGTDFTFTISSLQPEDFATYYCQQYDDLPAFGGGTKVEIK
B8: ADI-20983 (antibody, V domains shown)
VH: EVQLVESGGALVQPGGSLRLSCSASGFTFSSYAMHWVRQAPGKGLEYVSAINNFGDKTYYTDSVEGRFTISRDNSKKTLYLQMSSLRPEDTAVYYCVKDRGYCSSPSCYAVPYYYFYGMDVWGQGTTVTVSS
VL: EIVMTQSPSSLSASVGDRVTITCQASQGISNYLHWYQQKPGKAPKLLIYDASNLEAGVPSRFSGSGAGTDFTFTISSLQPEDVATYYCQHYNNLPFTFGPGTKVDIK
B9: ADI-20959 (antibody, V domains shown)
VH: EVQLLESGAEVKKPGASVKVSCKTSGYTFSNYGVSWVRQAPGQGLEWLGWISAYNGNTNYAQKLQGRVTMTTDSSTSTAYMEVRSLRSDDTAVYYCARDVAPVAASLFDYWGQGTLVTVSS
VL: DIRLTQSPLSLPVTLGQPASISCRSSQSLEFTDGNTYLSWFQQRPGQSPRRLIYKVSNRDSGVPDRFSGSGSGTDFTLKINRVEAEDVGVYYCMQGIHWPPTFGPGTKVEIK
B10: ADI-20962 (antibody, V domains shown)
VH: QVQLVQSGAEVKKPGASVKVSCKASGYTFSHYGLSWVRQAPGQGLEWMGWISAYNHNTNYAQKFQGRVTITTDTSTSTAYLEMRSLRSDDTAVYYCAREPPSDTAAGTGDYWGQGTLVTVSS
VL: DIVMTQSPLSLSVTLGQPASISCRSSQSLVYSDGNTYLTWFQQRPGQSPRRLIYKVSNRDSGVPDRFSGSGSGTDFTLKISRVEAEDVGVYYCMQGTQWPRTFGQGTKVDIK
B11: ADI-20969 (antibody, V domains shown)
VH: EVQLVESGGGLVKPGGSLRLSCAASGFKFSSYTMNWVRQAPGKGLEWVSSVSASSSYIFYADSVQGRFIISRDNAQNSLYLQMNSLRADDTAVYYCARDQYGPGHYYNPAWFDPWGQGTLVTVSS
VL: QPVLTQPPSVSGAPGQRVTISCTGTSSNIGAGYDVHWYKQLPGTAPKVLIYGNTNRPSGIPDRFSGSKSGTSASLAITGLKAEDEADYYCQSYDRSGSKVFGTGTKLTVL
B12: ADI-21032 (antibody, V domains shown)
VH: B11 VH with A24V, A97T
VL: B11 VL with V10A, T25S, K39Q, T78I, K81Q, S96N
notes: also called Ab 280
B13: ADI-14600 (antibody, V domains shown)
VH: QVQLVQSGGGLVKPGGSLRLSCAASGFSFSDYYMNWIRQAPGKGLEWVSYISSSSSYTNYADSVKGRFTISRDNAKKSLYLQMNSLRAEDTAVYYCASQTYSDYARGGAFDIWGQGTTVTVSS
VL: QSVLTQPPSVSGAPGQRVTISCTGSSSNIGAGYDVHWYQQLPGTAPKLLIYGNNNRPSGVPDRFSGSKSGTSASLAITGLQAEDEADYYCQSYDSSLSGSVFGTGTKVTVL
B14: ADI-20961 (antibody, V domains shown)
VH: QVQLVESGGGLVKPGGSLRLSCAASGFKFSSYYMHWVRQAPGKGLEWVSSVSGGSTYTSYADSVKGRFTISRDNAKHSLFLQLNSLRAEDTAVYHCVRGDYHPSGTSLNWFDPWGQGTLVTVSS
VL: B13 VL with S2P, V3G, Q39K, A45V, G52A, K68E, S98N, G99A, S100Y
B15: ADI-20979 (antibody, V domains shown)
VH: EVQLQESGPGLVKPSETLSLTCTVSGGSLRSYYWSWIRQPPGKGLEWIGNIYYGGSTNYNSSLKGRVTISIDTSKNQFSLRLSSVTAADTAVYYCARDGLFPMGEWDYWGQGILVTVSS
VL: QSALTQPASVSGSPGQSITISCTGTSNDVGDYNYVSWYQQHPGEAPKLMIYEVTNRPSGVSDRFSGSKSGNTASLTISGLQAEDEADYYCSSYTSSTSVVFGGGTQLTVL
notes: also called Ab 232
B16: ADI-14602 (antibody, V domains shown)
VH: EVQLVESGGGVVQPGGSLRLSCAASGFSFSSCGMHWVRQVSGKGLEWVAFIRYDGSNKFYADSVKGRFTISRDNSKNTLYLQMNSLRVEDTAVYYCAKGGLEDVSTGYSPHYYYGMDVWGQGTTVTVSS
VL: QPVLTQPPSVSVSPGQTASITCSGDKLAYKYTCWYQQKPGQSPVLVIFQDSKRPSGIPERFSGSNSGNTATLTISGTQALDEADYYCQAWDSSTVVFGGGTKLTVL
notes: also called Ab 130
B17: ADI-14604 (antibody, V domains shown)
VH: EVQLLESGGGLVQPGGSLRLSCSASGFTFNNYVMHWVRQAPGKGLEDASAISSNGVSTNYADSVKGRFTISRDNSKNTLYLQMRSLRAEDTALYYCVRDLIPHDSSAYYGYHGMDVWGQGTTVTVSS
VL: QPVLTQPPSASGTPGQSVTISCSGSSSNIGTNVVNWYQQLPGTAPKLLIYSNDLRPSGVPDRFSGSKSGTSASLAISGLQSEDEANYYCAAWDDSLNGVLFGGGTKLTVL
B18: ADI-14578 (antibody, V domains shown)
VH: QVQLVQSGAEVKKPGSSVKVSCKASGGTFNNYAINWVRQAPGQGLEWMGGIIPMFGTANYAQKFQGRVTMTADESTSTAYMELSSLRSEDTAVYYCASSQIFVGGNYYKLEFDNWGQGTLVTVSS
VL: QSVLTQPPSVSAAPGQKVTISCSGSNSNIGYNDVSWYQQLPGTAPQLLIYDNNKRTSGIPDRFSGSKFGTSATLGITGLQTGDEADYYCGTWDSSLSTVIFGGGTKLTVL
B19: ADI-14427 (antibody, V domains shown)
VH: QVQLVQSGAEVKKPGSSVKVSCKASGGTFNSYTINWVRQAPGQGLEWMGRIITIPGATNYAQKFQGRVTFTADKSTSTAYMELSSLRSEDTAVYFCAKRGTGYYGMDVWGQGTTVTVSS
VL: QSVLIQPRSVSGSPGQSVTISCTGTSSDVGGYNYVSWYQQHPGKAPKLMIYDVSERPSGVPDRFSGSKSGNTASLTISGLQAEDEADYYCCSFVGIYILVFGGGTKLTVL
notes: also called Ab 93
B20: ADI-20971 (antibody, V domains shown)
VH: EVQLVESGGGLVKPGESLRLSCAASGFTFSDYSMTWIRQAPGKGLLEWIAYINSQSNYMDYADSVKGRFTISRDNAKNSLYLQMNGLRADDTAVYFCARDRRTFVAATLGWFDPWGQGTLVTVSS
VL: ETTLTQSPATLSVSPGERATLSCRASQSVSNNVAWYQQKPGQAPRVLIYAASTRATGIPARFSGSESGTEFTLTISSLQSEDFAVYYCQQYNNWPRTFGQGTKLEIK

molecular target: RSV prefusion F (preF), subtype A (respiratory syncytial virus, subtype A, UniProt P03420 26-513); assay: BLI, IgG

Row | Binder | Kd
1 | B1 | 0.308 nM
2 | B2 | 0.291 nM
3 | B3 | 4.88 nM
4 | B4 | 0.439 nM
5 | B5 | 5.26 nM
6 | B6 | 0.36 nM
7 | B7 | 1.83 nM
8 | B8 | 0.213 nM
9 | B9 | 0.337 nM
10 | B10 | 0.289 nM
11 | B11 | 0.301 nM
12 | B12 | 0.296 nM
13 | B13 | 0.758 nM
14 | B14 | 0.374 nM
15 | B15 | 0.979 nM
16 | B16 | 4.73 nM
17 | B17 | 2.44 nM
18 | B18 | 3.29 nM
19 | B19 | 0.234 nM
20 | B20 | 0.333 nM

molecular target: T1, RSV postfusion F (postF), subtype A (respiratory syncytial virus, subtype A, UniProt P03420 26-513); assay: BLI, IgG
T1 construct: also called F ΔFP; Postfusion subtype A

Row | Binder | binding result | Kd
21 | B1 | no binding | 
22 | B2 | no binding | 
23 | B3 | no binding | 
24 | B4 | no binding | 
25 | B5 | no binding | 
26 | B6 | no binding | 
27 | B7 | no binding | 
28 | B8 |  | 2.05 nM
29 | B9 | no binding | 
30 | B10 | no binding | 
31 | B11 | no binding | 
32 | B12 | no binding | 
33 | B13 | no binding | 
34 | B14 | no binding | 
35 | B15 | no binding | 
36 | B16 | no binding | 
37 | B17 | no binding | 
38 | B18 | no binding | 
39 | B19 |  | 3.33 nM
40 | B20 | no binding | 

molecular target: RSV prefusion F (preF), subtype B (respiratory syncytial virus, subtype B); assay: BLI, IgG

Row | Binder | Kd
41 | B1 | 0.417 nM
42 | B2 | 0.36 nM
43 | B3 | 5.45 nM
44 | B4 | 2.19 nM
45 | B5 | 1.67 nM
46 | B6 | 2.49 nM
47 | B7 | 2.55 nM
48 | B8 | 1.17 nM
49 | B9 | 0.43 nM
50 | B10 | 0.463 nM
51 | B11 | 0.409 nM
52 | B12 | 0.344 nM
53 | B13 | 0.986 nM
54 | B14 | 0.504 nM
55 | B15 | 4 nM
56 | B16 | 8.94 nM
57 | B17 | 1.53 nM
58 | B18 | 4.02 nM
59 | B19 | 10.8 nM
60 | B20 | 0.544 nM
